The values that follow come from paper PMC4790445 (Nature structural & molecular biology, 2015).

This assay addresses WT EGFR kinase (residues 696-1022) (human, UniProt P00533 696-1022). The assay is described as follows: kinase inhibition kinetics.

B1: unphosphorylated Mig6 segment 1+2 (residues 330-399) (domain or fragment, human, UniProt Q9UJM3 330-399, looked up)
chain: SRTPSPKSLPSYLNGVMPPTQSFAPDPKYVSSKALQRQNSEGSASKVPCILPIIENGKKVSSTHYYLLPE
As a reminder, the Ki is the dissociation constant of the complex between target and ligand, obtained from inhibition or displacement. The low end stands for tighter binding, the high end for weaker binding. On to B1, for which the Ki is 10 to 20 nM.
